Data as given in PMC7512017.
“And” between values parts separate entries of the source, which are not always exact repeats. Identical values can stand only once.

Experiments:
[1] = target: apo-CCP2 (C-terminal domain-like carotenoid protein 2 from Tolypothrix sp. PCC 7601, without carotenoid) (Tolypothrix sp. PCC 7601); assay: SEC; analytical SEC on a Superdex 75 column; masses estimated with protein molecular weight standards
[2] = target: apo-CCP2 (C-terminal domain-like carotenoid protein 2 from Tolypothrix sp. PCC 7601, without carotenoid) (Tolypothrix sp. PCC 7601); assay: SEC-MALS + other: SEC-SAXS; SEC-SAXS-MALS, Shodex KW802.5 column, 10 mM Na-phosphate pH 7.0, 100 mM NaCl, 20 °C; samples at 5 mg/mL (legend: apo tetramer sample 10 mg/mL); also run with reductant (5 mM TCEP)
[3] = target: holo-CCP2 (C-terminal domain-like carotenoid protein 2 from Tolypothrix sp. PCC 7601, with bound canthaxanthin) (Tolypothrix sp. PCC 7601); assay: SEC; analytical SEC on a Superdex 75 column; masses estimated with protein molecular weight standards
[4] = target: holo-CCP2 (C-terminal domain-like carotenoid protein 2 from Tolypothrix sp. PCC 7601, with bound canthaxanthin) (Tolypothrix sp. PCC 7601); assay: SEC-MALS + other: SEC-SAXS; SEC-SAXS-MALS, Shodex KW802.5 column, 10 mM Na-phosphate pH 7.0, 100 mM NaCl, 20 °C; samples at 5 mg/mL (legend: apo tetramer sample 10 mg/mL); also run with reductant (5 mM TCEP)

stoichiometry N [1]	stoichiometry N [2]	stoichiometry N [3]	stoichiometry N [4]	Substance
2 and 4	2 and 3 and 4			apo-CCP2 (C-terminal domain-like carotenoid protein 2 from Tolypothrix sp. PCC 7601, without carotenoid) (natural protein)
		2 and 4	2 and 4	holo-CCP2 (C-terminal domain-like carotenoid protein 2 from Tolypothrix sp. PCC 7601, with bound canthaxanthin) (natural protein)
